Kd data for 2 substances are collected here from patent US20230071889A1.

pKd: −log10 of the molar value.

Assay [1] deals with T1, CD127 (Sinobiological, 10975-H03H-50) (UniProt P16871).
T1 sequence (looked up): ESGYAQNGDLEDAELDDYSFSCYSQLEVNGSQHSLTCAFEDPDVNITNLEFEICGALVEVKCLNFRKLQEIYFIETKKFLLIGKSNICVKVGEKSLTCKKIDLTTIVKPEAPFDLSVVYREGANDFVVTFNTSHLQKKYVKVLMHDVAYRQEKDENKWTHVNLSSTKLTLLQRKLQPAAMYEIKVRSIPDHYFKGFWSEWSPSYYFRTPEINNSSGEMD
Briefly: Biacore, CD127 immobilised on CM5 chip; bivalent model. A general note: In SPR one partner is held on a chip, and binding of the other changes the refractive index at the surface.

In assay [2] the target is T2, CD132 receptor (Sinobiological 10555-H08B) (UniProt P31785).
T2 sequence (looked up): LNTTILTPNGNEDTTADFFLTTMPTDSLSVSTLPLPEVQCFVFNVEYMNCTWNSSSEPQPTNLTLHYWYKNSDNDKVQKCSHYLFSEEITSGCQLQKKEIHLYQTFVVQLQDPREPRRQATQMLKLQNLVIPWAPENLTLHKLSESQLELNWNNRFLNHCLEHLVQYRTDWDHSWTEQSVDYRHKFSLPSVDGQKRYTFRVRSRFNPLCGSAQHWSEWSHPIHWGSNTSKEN
Briefly: Biacore, CD132 injected over the CD127/IL-7 complex on the chip.

Assay [3] concerns the target T2, CD132 receptor (Sinobiological 10555-H08B). Briefly: Biacore, CD132 injected over immobilised CD127 + IgG4 alone; steady-state model; baseline, CD127 dimerizes with CD132 in the absence of IL-7.

One may read the pKd as the Kd on a negative log10 scale, so that one unit is a factor of ten. As to “IL-7 fused to Fc domain (IL7-Fc, CHI-HF-22007 Adipogen) (Fc fusion)”, the pKd in assay [1] was 8.20; in assay [2], 6.30.

Consider IgG4 alone (antibody), for which the pKd in assay [3] was 5.60.
